Sequences and labels used below:
B1: CPEB3 Ribozyme (parent)
chain: UAACAGGGGGCCACAGCAGAAGCGUUCACGUCGCAGCCCCUGUCAGAUUCUGGUGAAUCUGCGAAUUCUGCUGUAUAUCUC

Variants of B1 are the subject of this series. In words: self-cleavage, relative activity (ratio to wild type); higher = more cleavage; in vitro, sequencing. In a few lines: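 For each CPEB3 ribozyme variant, relative activity is its cleaved/total read fraction divided by the unmutated ribozyme's. Barcoded error-prone PCR libraries were transcribed by T7 RNA polymerase (5 hours, 37°C) and held in DNase I for 15 min before an EDTA stop, with cleavage occurring throughout. Template-switching reverse transcription and Illumina sequencing were used to read the RNAs. A 5-read minimum applied, and results are the mean of three batches.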
Consider UAACAGGGGGCCACAGCAGAAGCGUUCACGUCGCAGCCCCUGGCAGAUUCUGGUGAAUCUGCGAAUUCUGCGGUAUAUCUC [U43G U72G], for which the self-cleavage turned out to be 0.17. UAACAGGGGGCCACAGCAGAAGCGUUCACGUCGCAGCCCCUGGCAGAUUCUGGUGAAUCUGCGAAUUCUGCUGUUUAUCUC [U43G A75U]: the self-cleavage amounted to 0.35. Consider UAACAGGGGGCCACAGCAGAAGCGUUCACGUCGCAGCCCCUGGCAGAUUCUGGUGAAUCUGCGAAUUCUGCUGUGUAUCUC [U43G A75G], for which the self-cleavage was found to be 0.24. The result for UAACAGGGGGCCACAGCAGAAGCGUUCACGUCGCAGCCCCUGCCAGAUUCUGGUGAAUCUGCGAAUUCUGCUGUAAAUCUC [U43C U76A] reads 0.89; that for UAACAGGGGGCCACAGCAGAAGCGUUCACGUCGCAGCCCCUGCCAGAUUCUGGUGAAUCUGCGAAUUCUGCUGUAGAUCUC [U43C U76G], 0.69; that for UAACAGGGGGCCACAGCAGAAGCGUUCACGUCGCAGCCCCUGCCAGAUUCUGGUGAAUCUGCGAAUUCUGCUGUACAUCUC [U43C U76C], 0.73.

On to UAACAGGGGGCCACAGCAGAAGCGUUCACGUCGCAGCCCCUGUAAGAUUCUGGUGAAUCUGCGAAUUGUGCUGUAUAUCUC [C44A C68G], for which the self-cleavage was found to be 0.12. The value for UAACAGGGGGCCACAGCAGAAGCGUUCACGUCGCAGCCCCUGCCAGAUUCUGGUGAAUCUGCGAAUUCUGCUGGAUAUCUC [U43C U74G] was 0.86. The result for UAACAGGGGGCCACAGCAGAAGCGUUCACGUCGCAGCCCCUGCCAGAUUCUGGUGAAUCUGCGAAUUCUGCUGCAUAUCUC [U43C U74C] reads 0.89; that for UAACAGGGGGCCACAGCAGAAGCGUUCACGUCGCAGCCCCUGCCAGAUUCUGGUGAAUCUGCGAAUUCUGCUGAAUAUCUC [U43C U74A], 0.85. Consider UAACAGGGGGCCACAGCAGAAGCGUUCACGUCGCAGCCCCUGGCAGAUUCUGGUGAAUCUGCGAAUUCUGCUGGAUAUCUC [U43G U74G], for which the self-cleavage stood at 0.36. On to UAACAGGGGGCCACAGCAGAAGCGUUCACGUCGCAGCCCCUGGCAGAUUCUGGUGAAUCUGCGAAUUCUGCUGAAUAUCUC [U43G U74A], for which the self-cleavage came to 0.11. As for UAACAGGGGGCCACAGCAGAAGCGUUCACGUCGCAGCCCCUGGCAGUUUCUGGUGAAUCUGCGAAUUCUGCUGUAUAUCUC [U43G A47U], the self-cleavage was found to be 0.1. The result for UAACAGGGGGCCACAGCAGAAGCGUUCACGUCGCAGCCCCUGUAAGAUUCUGGUGAAUCUGCGAAUUCUGCUGUGUAUCUC [C44A A75G] reads 0.32. As to UAACAGGGGGCCACAGCAGAAGCGUUCACGUCGCAGCCCCUGGCAAAUUCUGGUGAAUCUGCGAAUUCUGCUGUAUAUCUC [U43G G46A], the self-cleavage is 0.37. The value for UAACAGGGGGCCACAGCAGAAGCGUUCACGUCGCAGCCCCUGGCAGAUUCUGGUGAACCUGCGAAUUCUGCUGUAUAUCUC [U43G U58C] was 0.14; that for UAACAGGGGGCCACAGCAGAAGCGUUCACGUCGCAGCCCCUGGCAGAUUCUGGUGAAUCUGCGAAUUCUGCUGUAUGUCUC [U43G A77G] was 0.22. Consider UAACAGGGGGCCACAGCAGAAGCGUUCACGUCGCAGCCCCUGCCAGAUUCUGGUGAAUCUGCGAAUUCAGCUGUAUAUCUC [U43C U69A], for which the self-cleavage is 0.32. The value for UAACAGGGGGCCACAGCAGAAGCGUUCACGUCGCAGCCCCUGCCAGAUUCUGGUGAAUCUGCGAAUUCCGCUGUAUAUCUC [U43C U69C] was 0.31. As to UAACAGGGGGCCACAGCAGAAGCGUUCACGUCGCAGCCCCUGCCAGAUUCUGGUGAAUCUGCGAAUUCGGCUGUAUAUCUC [U43C U69G], the self-cleavage is 0.43. As for UAACAGGGGGCCACAGCAGAAGCGUUCACGUCGCAGCCCCUGGCAGAUUCUGGUGAAUCUGCGAAUUCUGCUGUAUACCUC [U43G U78C], the self-cleavage is 0.28. As for UAACAGGGGGCCACAGCAGAAGCGUUCACGUCGCAGCCCCUGCCAGAUUCUGGUGAAUCUGCGAAGUCUGCUGUAUAUCUC [U43C U66G], the self-cleavage was 0.45.

As to UAACAGGGGGCCACAGCAGAAGCGUUCACGUCGCAGCCCCUGGCAGAUUCUGGUGAAUCUGCGAAUUCUGCUGUAUAUCCC [U43G U80C], the self-cleavage is 0.18. For UAACAGGGGGCCACAGCAGAAGCGUUCACGUCGCAGCCCCUGGCAGAUUCUGGUGAAUCUGCGAAUUCUACUGUAUAUCUC [U43G G70A], the self-cleavage is 0.34. In the case of UAACAGGGGGCCACAGCAGAAGCGUUCACGUCGCAGCCCCUGGCAGAUUCUGGUGAAUCAGCGAAUUCUGCUGUAUAUCUC [U43G U60A], the self-cleavage turned out to be 0.15. The result for UAACAGGGGGCCACAGCAGAAGCGUUCACGUCGCAGCCCCUGGCAGAUUCUGGUGAAUCCGCGAAUUCUGCUGUAUAUCUC [U43G U60C] reads 0.13. On to UAACAGGGGGCCACAGCAGAAGCGUUCACGUCGCAGCCCCUGGCAGACUCUGGUGAAUCUGCGAAUUCUGCUGUAUAUCUC [U43G U48C], for which the self-cleavage was found to be 0.39. Consider UAACAGGGGGCCACAGCAGAAGCGUUCACGUCGCAGCCCCUGGCAGAAUCUGGUGAAUCUGCGAAUUCUGCUGUAUAUCUC [U43G U48A], for which the self-cleavage was 0.2.

As to UAACAGGGGGCCACAGCAGAAGCGUUCACGUCGCAGCCCCUGCCAGAUUCUGGUGAAUCUGCGAAUUCUGCUGUAUAUCGC [U43C U80G], the self-cleavage came to 1.01. In the case of UAACAGGGGGCCACAGCAGAAGCGUUCACGUCGCAGCCCCUGCCAGAUUCUGGUGAAUCUGCGAAUUCUGCUGUAUAUCCC [U43C U80C], the self-cleavage was determined as 0.68. In the case of UAACAGGGGGCCACAGCAGAAGCGUUCACGUCGCAGCCCCUGCCAGAUUCUGGUGAAUCUGCGAAUUCUGCUGUAUAUCAC [U43C U80A], the self-cleavage was determined as 0.73. The result for UAACAGGGGGCCACAGCAGAAGCGUUCACGUCGCAGCCCCUGGCAGAUUCUGGAGAAUCUGCGAAUUCUGCUGUAUAUCUC [U43G U54A] reads 0.26; that for UAACAGGGGGCCACAGCAGAAGCGUUCACGUCGCAGCCCCUGGCAGAUUCUGGCGAAUCUGCGAAUUCUGCUGUAUAUCUC [U43G U54C], 0.45. On to UAACAGGGGGCCACAGCAGAAGCGUUCACGUCGCAGCCCCUGGCAGAUUCUGGUGAGUCUGCGAAUUCUGCUGUAUAUCUC [U43G A57G], for which the self-cleavage was found to be 0.21.

The values above are taken from the RNAGym collection of RNA variant scans (doi:10.1093/nar/gkz1192).
